{"source": "patent US12662540B2", "about": "“Compositions and methods for inhibition of MICA/B shedding” (DANA-FARBER CANCER INSTITUTE, INC., priority 2017, dated 2026)", "key": {"[1]": {"test_system": "A2058 melanoma cells", "assay": "A2058 metastasis model (NSG mice, human NK cells)", "format": "in vivo", "procedure": "Human NK cell reconstitution of NSG mice was done similar to a previous report (26). Briefly, human NK cells were obtained from fresh blood collars, as described above. Cells were treated overnight with 300 U/ml of recombinant human IL-2 (BD Pharmingen), and 1.5×10^6NK cells were injected intravenously into NSG mice. NK cell survival was supported by intraperitoneal injection of 75,000 U of IL-2 (Peprotech) every other day. Human NK cells survived in NSG mice for approximately one week under these conditions (data not shown) and therefore the last IL-2 injection was given 7 days following NK cell transfer. Furthermore, one day after NK cell inoculation and the first injection of IL-2, NSG mice were also injected intravenously with 1×10^6 A2058 melanoma cells. Two days later, mice were treated with 200 μg 7C6-hIgG1 or isotype control (BioXcell) and again once per week. Mice were bled at multiple time points to measure shed MICA and other serum markers. Euthanasia was performed on day 30 following tumor cell inoculation, lungs were perfused with Indian ink (as described above), fixed in Fekete's solution, and the number of lung metastases was counted. Lungs processed for histology were not perfused but fixed in formalin. Livers were also collected, fixed in formalin solution and the number of metastases was counted, or processed for histology. Following removal of these tissues, mice were fixed in Bouin fixative and processed for necropsy by the Rodent Histopathology Core (Dana-Farber/Harvard Cancer Center). The analysis was performed by a pathologist unaware of the different experimental groups.\nMacrophages were depleted by intravenous injection of 0.2 ml clodronate liposomes (Encapsula NanoSciences LLC). In the humanized and B16F10-MICA metastasis models, 0.2 ml of clodronate liposomes or control liposomes were injected i.v. (on the same day of tumor cell inoculation and then once weekly)."}, "[2]": {"test_system": "human macrophages", "assay": "Inhibition of MICA shedding by macrophages", "format": "cell-based", "conditions": "acetylated-LDL, 24 hours, antibody 10 μg/ml", "procedure": "PBMC were isolated from a leukapheresis collar obtained from a healthy donor, and monocytes were isolated by adherence to tissue culture plates (2 hour incubation). Non-adherent cells were then washed away and M-CSF was added at 100 ng/ml in RPMI-1640 media supplemented with 10% FBS, Glutamax and Penicillin/Streptomycin. Visual inspection of cell morphology on day 5 confirmed that monocytes had differentiated into macrophages. Macrophages were treated for 24 hours in 96-well plates with different concentrations of acetylated LDL as well as MICA antibodies (10 μg/ml). Shed MICA in supernatants was examined by ELISA (Abcam) and cell surface density of MICA/B was quantified by flow cytometry."}, "[3]": {"test_system": "Kupffer cells", "assay": "Analysis of liver macrophages in humanized metastasis model", "format": "in vivo, NSG mice", "conditions": "three weeks after tumor cell inoculation", "procedure": "NSG mice were injected i.v with A2058 cells and treated with 7C6-hgG1 or isotype control antibodies as described above. Three weeks following tumor cell inoculation, mice were euthanized and livers were perfused with PBS through the portal vein. Livers were mechanically dissociated and cell suspensions passed through a 70 □ filter. […] Antibodies used for subsequent labeling were APC-CD45.2, APC-CD45.1, BV785-CD11b, BV421-F4/80, BV650-CD80, PE-CD86, FITC-Ly6C, PE-Cy7-Ly6G, PERCP-Cy5.5-CD16/CD32 and Zombie NIR. Cells were acquired in a Sony Spectral Analyzer and data were analyzed by FlowJo."}, "[4]": {"test_system": "A375 cells", "assay": "NK cell cytotoxicity assay (51Cr release), human NK cells against human tumor cells", "format": "cell-based", "procedure": "Human NK cells were isolated from fresh leukapheresis blood collars that had been generated by Brigham & Women's Hospital, Boston, from healthy donors. Samples were diluted with an equal volume of PBS and blood mononuclear cells were isolated by Ficoll density gradient centrifugation. Cells were washed with PBS, and NK cells were isolated by negative selection using the Human NK Cell Isolation Kit (130-092-657, Miltenyi Biotech) using an autoMACS system (Miltenyi Biotech). Enriched NK cells (purity of 50-90%) were then incubated with anti-CD56 (PE or APC conjugated) and anti-CD3 (FITC or Pacific Blue conjugated) (Biolegend) and sorted using a BD FACS Aria. Following sorting, NK cell purity was ˜99%. These cells were cultured for twelve hours in complete RPMI media supplemented with 300-1000 U/ml of recombinant human IL-2 (BD Pharmingen).\nTarget cells were labeled for 1 hour with 100 μCi of ^51[Cr] per 2×10^6 cells in 0.2 ml of media. Subsequently, cells were washed and plated in V-bottom 96-wells plates (5,000 target cells per well). To determine the experimental release, NK cells were added in an equal volume, but at different ratios. To determine maximum and spontaneous release, target cells were mixed with an equal volume of 2% Triton-X100 in PBS or an equal volume of media, respectively. Antibodies were added at a final concentration of 10 μg/ml.\nFor experiments shown in FIGS. 1E, 10, and 13E antibodies were added at the time of the killing assay. For FIGS. 3A-B, antibodies were added to tumor cells 48 hours prior to labelling with ^51[Cr] to inhibit MICAS shedding. The isotype control antibody for assays with human NK cells was recombinant human IgG1 Fc (BE0096, BioXcell). […] At the end of the incubation period, plates were centrifuged (2000 rpm, 5 minutes), part of the supernatant was collected, mixed with scintillation fluid, and radioactivity was quantified using a MicroBeta2 reader (Perkin Elmer). Specific killing was calculated using the following formula: 100×(Experimental release−Spontaneous release)/(Maximum release−Spontaneous release)."}, "[5]": {"test_system": "human NK cells", "assay": "NK cell RNA-sequencing after co-culture with antibody-pretreated A375 cells", "format": "cell-based", "conditions": "6 hours co-culture; A375 pretreated 48 hours", "procedure": "Human NK cells were isolated from a healthy volunteer to ˜99% purity. These cells were pre-activated with 1,000 U/ml IL-2 overnight. A375 tumor cells were pre-treated with 10 μg/ml of 7C6-hIgG1 or isotype control (BioXcell BE0096) antibodies for 48 hours. Cells were then washed and NK cells were co-cultured with tumor cells for 6 hours in a 5:1 ratio. Subsequently, human NK cells were re-sorted and total RNA isolated with genomic DNA digestion with QIAGEN RNeasy RNA isolation kit (74134). RNA sequencing libraries were generated using the Kapa mRNAseq kit (KapaBiosystems). The libraries were analyzed by Next-Generation Sequencing and pooled barcoded samples were subjected to VIPER analysis. RNA levels were compared for NK cells from co-cultures treated with 7C6-hIgG1 versus isotype control antibodies. A cut-off of at least 1 Log2 fold change was applied to select genes that were differentially expressed. Gene set enrichment analysis (GSEA) was also performed in order to identify relevant molecular pathways for differentially expressed mRNAs."}, "[6]": {"test_system": "human NK cells", "assay": "Intracellular interferon-γ production by NK cells co-cultured with tumor cells", "format": "cell-based", "conditions": "co-culture with tumor cells, antibody 10 μg/ml", "procedure": "NK cells were co-cultured for 6 hours at a ratio of 5:1 with tumor cells in the presence of Brefeldin-A (Biolegend). After the incubation time, Fc receptors were blocked, cells stained with NK cell markers, stained further with a dead cell marker (Zombie Yellow, Biolegend), and subsequently processed for intracellular interferon-γ labeling. Briefly, cells were fixed with BD Cytofix/Cytoperm™ Fixation and Permeabilization Solution (BD Pharmingen), permeabilized with Permeabilization Wash Buffer (Biolegend), and stained with APC-conjugated anti-human interferon-γ (4S.B3, Biolegend) or appropriate isotype control. Fluorescence spectra were acquired using a LSR Fortessa flow cytometer and analyzed by FlowJo."}}, "note": "“Also recorded” adds a separate entry of the source."}
{"molecule": "7C6-hIgG1: recombinant 7C6 with Fc segment replaced by human IgG1 (antibody, V domains shown) VH: QIQLVQSGPELKKPGETVKVSCKASGYMFTNYAMNWVKQAPEKGLKWMGWINTHTGDPTYADDFKGRIAFSLETSASTAYLQINNLKNEDTATYFCVRTYGNYAMDYWGQGTSVTVSS VL: DIQMTQTTSSLSASLGDRVTISCSASQDISNYLNWYQQKPDGTVKLLIYDTSILHLGVPSRFSGSGSGTDYSLTISNLEPEDIATYYCQQYSKFPRTFGGGTTLEIK", "values": [{"measurement": "number of lung metastases", "setting": "[1]; NSG mice reconstituted with human NK cells, day 30", "result": "had fewer lung metastases; also recorded: reduces number of lung metastases in the presence of human NK cells"}, {"measurement": "activity against liver metastases after macrophage depletion", "setting": "[1]; clodronate liposomes, no NK cell reconstitution, 3 weeks", "result": "abrogated the therapeutic activity"}, {"measurement": "number of organs with metastases (metastatic load)", "setting": "[1]; day 30", "result": "reduced the number of organs with metastases; also recorded: significantly reduced metastatic load in the absence of transferred NK cells"}, {"measurement": "survival", "setting": "[1]; mice reconstituted with human NK cells", "result": "significant survival benefit; also recorded: increases the survival of mice"}, {"measurement": "number of liver metastases", "setting": "[1]; with or without NK cell transfer, day 30", "result": "substantially reduced the number of liver metastases even without NK cell transfer; also recorded: shows significant therapeutic activity against liver metastases even in the absence of NK cells"}, {"measurement": "MICA and MICB surface levels on macrophages", "setting": "[2]", "result": "increased MICA and MICB surface levels on macrophages"}, {"measurement": "MICA shedding by macrophages", "setting": "[2]", "result": "inhibited MICA shedding"}, {"measurement": "CD80 expression by Kupffer cells", "setting": "[3]", "result": "higher surface levels of the CD80 activation marker; also recorded: increased expression of CD80 by Kupffer cells"}, {"measurement": "NK cell-mediated cytotoxicity against antibody-pretreated A375 cells", "setting": "[4]; A375 treated 48 hours, 4 hour co-culture with human NK cells", "result": "triggered stronger NK cell-mediated cytotoxicity than the 7C6-hIgG1-DANA mutant"}, {"measurement": "NK cell mediated cytotoxicity against human tumor cells", "setting": "[4]; human NK cells, antibody added at time of killing assay (10 μg/ml, 66.7 nM)", "result": "enabled strong NK cell mediated killing of human tumor cells; also recorded: exhibit cytotoxicity against A375 cells"}, {"measurement": "gene expression by human NK cells", "setting": "[5]", "result": "upregulated genes associated with NK cell activation and effector functions"}, {"measurement": "IFNγ (cytokine) production by human NK cells", "setting": "[6]", "result": "produced higher levels of IFNγ"}]}
